Measurements reported in patent publication US11833164B2, “Methods of treating Fabry disease in patients having a mutation in the GLA gene” (Amicus Therapeutics, Inc., priority 2019, dated 2023).

System: mutant form of α-Gal A expressed in HEK-293 cells
Test: HEK assay (GLP HEK / Migalastat Amenability Assay): α-Gal A activity in lysates of transiently transfected HEK-293 cells incubated with or without 10 μM migalastat
Format: cell-based, human
Settings: for Absolute increase (% WT): 10 μM migalastat versus baseline; for Relative increase: 10 μM migalastat α-Gal A activity relative to baseline; for 10 μM migalastat α-Gal A activity (% WT): 5 days; for 10 μM migalastat α-Gal A activity (% WT) / Baseline α-Gal A activity (% WT): percentage of baseline wild-type α-Gal A activity; for 10 μM migalastat α-Gal A activity (% WT) / Baseline α-Gal A activity (% WT) / Baseline α-Gal A activity / 10 μM migalastat α-Gal A activity: mean ± SEM; for Baseline α-Gal A activity (% WT): absence of migalastat; for Baseline α-Gal A activity / 10 μM migalastat α-Gal A activity: lysates of HEK-293 cells transfected with the mutant form; for Baseline α-Gal A activity: incubated 5 days in the absence of migalastat; for 10 μM migalastat α-Gal A activity: incubated 5 days with 10 μM migalastat
Summary of the method: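 Activity reported as 4-MU released (nmol/mg/hr), mean±SEM, from lysates of transiently transfected HEK-293 cells expressing mutant α-Gal A, cultured with or without 10 μM migalastat.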

| Molecule | Absolute increase (% WT) | Relative increase | 10 μM migalastat α-Gal A activity (% WT) | Baseline α-Gal A activity (% WT) | Baseline α-Gal A activity | 10 μM migalastat α-Gal A activity |
| --- | --- | --- | --- | --- | --- | --- |
| T141S (protein) MQLRNPELHLGCALALRFLALVSWDIPGARALDNGLARTPTMGWLHWERFMCNLDCQEEPDSCISEKLFMEMAELMVSEGWKDAGYEYLCIDDCWMAPQRDSEGRLQADPQRFPHGIRQLANYVHSKGLKLGIYADVGNKSCAGFPGSFGYYDIDAQTFADWGVDLLKFDGCYCDSLENLADGYKHMSLALNRTGRSIVYSCEWPLYMWPFQKPNYTEIRQYCNHWRNFADIDDSWKSIKSILDWTSFNQERIVDVAGPGGWNDPDMLVIGNFGLSWNQQVTQMALWAIMAAPLFMSNDLRHISPQAKALLQDKDVIAINQDPLGKQGYQLRQGDNFEVWERPLSGLAWAVAMINRQEIGGPRSYTIAVASLGKGVACNPACFITQLLPVKRKLGFYEWTSRLRSHINPTGTVLLQLENTMQMSLKDLL | 34.4 % WT | 1.5 | 98.2 ± 9.1 % WT | 63.8 ± 7.1 % WT | 22602 ± 2254 nmol/mg/h | 34806 ± 2770 nmol/mg/h |
| G144A (protein) MQLRNPELHLGCALALRFLALVSWDIPGARALDNGLARTPTMGWLHWERFMCNLDCQEEPDSCISEKLFMEMAELMVSEGWKDAGYEYLCIDDCWMAPQRDSEGRLQADPQRFPHGIRQLANYVHSKGLKLGIYADVGNKTCAAFPGSFGYYDIDAQTFADWGVDLLKFDGCYCDSLENLADGYKHMSLALNRTGRSIVYSCEWPLYMWPFQKPNYTEIRQYCNHWRNFADIDDSWKSIKSILDWTSFNQERIVDVAGPGGWNDPDMLVIGNFGLSWNQQVTQMALWAIMAAPLFMSNDLRHISPQAKALLQDKDVIAINQDPLGKQGYQLRQGDNFEVWERPLSGLAWAVAMINRQEIGGPRSYTIAVASLGKGVACNPACFITQLLPVKRKLGFYEWTSRLRSHINPTGTVLLQLENTMQMSLKDLL | 15.5 % WT | 1.3 | 60.4 ± 2.8 % WT | 44.9 ± 3.6 % WT | 20304 ± 1590 nmol/mg/h | 27268 ± 1039 nmol/mg/h |
| A143E (protein) MQLRNPELHLGCALALRFLALVSWDIPGARALDNGLARTPTMGWLHWERFMCNLDCQEEPDSCISEKLFMEMAELMVSEGWKDAGYEYLCIDDCWMAPQRDSEGRLQADPQRFPHGIRQLANYVHSKGLKLGIYADVGNKTCEGFPGSFGYYDIDAQTFADWGVDLLKFDGCYCDSLENLADGYKHMSLALNRTGRSIVYSCEWPLYMWPFQKPNYTEIRQYCNHWRNFADIDDSWKSIKSILDWTSFNQERIVDVAGPGGWNDPDMLVIGNFGLSWNQQVTQMALWAIMAAPLFMSNDLRHISPQAKALLQDKDVIAINQDPLGKQGYQLRQGDNFEVWERPLSGLAWAVAMINRQEIGGPRSYTIAVASLGKGVACNPACFITQLLPVKRKLGFYEWTSRLRSHINPTGTVLLQLENTMQMSLKDLL | 11.4 % WT | 1.5 | 37.3 ± 1.8 % WT | 25.9 ± 1.5 % WT | 7681 ± 439 nmol/mg/h | 11458 ± 884 nmol/mg/h |
| A143G (protein) MQLRNPELHLGCALALRFLALVSWDIPGARALDNGLARTPTMGWLHWERFMCNLDCQEEPDSCISEKLFMEMAELMVSEGWKDAGYEYLCIDDCWMAPQRDSEGRLQADPQRFPHGIRQLANYVHSKGLKLGIYADVGNKTCGGFPGSFGYYDIDAQTFADWGVDLLKFDGCYCDSLENLADGYKHMSLALNRTGRSIVYSCEWPLYMWPFQKPNYTEIRQYCNHWRNFADIDDSWKSIKSILDWTSFNQERIVDVAGPGGWNDPDMLVIGNFGLSWNQQVTQMALWAIMAAPLFMSNDLRHISPQAKALLQDKDVIAINQDPLGKQGYQLRQGDNFEVWERPLSGLAWAVAMINRQEIGGPRSYTIAVASLGKGVACNPACFITQLLPVKRKLGFYEWTSRLRSHINPTGTVLLQLENTMQMSLKDLL | 51.9 % WT | 1.8 | 119.7 ± 5.9 % WT | 67.8 ± 3.4 % WT | 20419 ± 1260 nmol/mg/h | 36821 ± 2997 nmol/mg/h |
